Results taken from PMC3919625.

Target: 2G12 IgG monomer (human)
Test: SEC

- stoichiometry N (FcRn per 2G12 monomer): 2
B1: soluble neonatal Fc receptor (FcRn) (receptor)
chain 1: AEPRLPLMYHLAAVSDLSTGLPSFWATGWLGAQQYLTYNNLRQEADPCGAWIWENQVSWYWEKETTDLKSKEQLFLEAIRTLENQINGTFTLQGLLGCELAPDNSSLPTAVFALNGEEFMRFNPRTGNWSGEWPETDIVGNLWMKQPEAARKESEFLLTSCPERLLGHLERGRQNLEWKEPPSMRLKARPGNSGSSVLTCAAFSFYPPELKFRFLRNGLASGSGNCSTGPNGDGSFHAWSLLEVKRGDEHHYQCQVEHEGLAQPLTVDLDSPARSS
chain 2: IQKTPQIQVYSRHPPENGKPNFLNCYVSQFHPPQIEIELLKNGKKIPNIEMSDLSFSKDWSFYILAHTEFTPTETDVYACRVKHVTLKEPKTVTWDRDM
